Experimental data reported in US20120213794A1 (published 2012).
Substitutions are numbered along the chain they refer to. One block for each binder: values may come before it.

How the values were obtained:
murine PCSK9 = murine PCSK9 (mouse, UniProt Q80W65 35-694, limits assumed); test: cell-based or functional assay
human PCSK9 [1] = target: T1, human PCSK9 (human, UniProt Q8NBP7 31-692); test: cell-based or functional assay
T1 sequence (Q8NBP7 31-692 limits assumed): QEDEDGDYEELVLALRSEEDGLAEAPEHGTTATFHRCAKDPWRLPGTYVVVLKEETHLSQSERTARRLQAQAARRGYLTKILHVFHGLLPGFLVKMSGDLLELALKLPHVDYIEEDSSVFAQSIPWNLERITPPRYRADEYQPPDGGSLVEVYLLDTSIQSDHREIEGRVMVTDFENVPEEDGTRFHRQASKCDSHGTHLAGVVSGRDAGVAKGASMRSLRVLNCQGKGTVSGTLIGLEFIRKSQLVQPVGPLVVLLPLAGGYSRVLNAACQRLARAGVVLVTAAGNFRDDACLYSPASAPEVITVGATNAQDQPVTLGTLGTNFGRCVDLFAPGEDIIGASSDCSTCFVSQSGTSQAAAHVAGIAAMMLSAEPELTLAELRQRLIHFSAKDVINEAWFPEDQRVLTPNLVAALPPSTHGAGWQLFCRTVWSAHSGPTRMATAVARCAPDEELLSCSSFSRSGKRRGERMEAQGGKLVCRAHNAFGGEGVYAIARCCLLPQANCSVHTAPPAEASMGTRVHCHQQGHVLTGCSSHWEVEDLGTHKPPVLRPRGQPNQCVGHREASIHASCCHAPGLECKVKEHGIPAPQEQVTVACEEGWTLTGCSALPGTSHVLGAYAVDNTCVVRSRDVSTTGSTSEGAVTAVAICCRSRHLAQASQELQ

rhesus PCSK9 = rhesus PCSK9 (rhesus, UniProt A8T666 31-692, limits assumed); test: cell-based or functional assay
Chain of rhesus PCSK9 (A8T666 31-692 limits assumed): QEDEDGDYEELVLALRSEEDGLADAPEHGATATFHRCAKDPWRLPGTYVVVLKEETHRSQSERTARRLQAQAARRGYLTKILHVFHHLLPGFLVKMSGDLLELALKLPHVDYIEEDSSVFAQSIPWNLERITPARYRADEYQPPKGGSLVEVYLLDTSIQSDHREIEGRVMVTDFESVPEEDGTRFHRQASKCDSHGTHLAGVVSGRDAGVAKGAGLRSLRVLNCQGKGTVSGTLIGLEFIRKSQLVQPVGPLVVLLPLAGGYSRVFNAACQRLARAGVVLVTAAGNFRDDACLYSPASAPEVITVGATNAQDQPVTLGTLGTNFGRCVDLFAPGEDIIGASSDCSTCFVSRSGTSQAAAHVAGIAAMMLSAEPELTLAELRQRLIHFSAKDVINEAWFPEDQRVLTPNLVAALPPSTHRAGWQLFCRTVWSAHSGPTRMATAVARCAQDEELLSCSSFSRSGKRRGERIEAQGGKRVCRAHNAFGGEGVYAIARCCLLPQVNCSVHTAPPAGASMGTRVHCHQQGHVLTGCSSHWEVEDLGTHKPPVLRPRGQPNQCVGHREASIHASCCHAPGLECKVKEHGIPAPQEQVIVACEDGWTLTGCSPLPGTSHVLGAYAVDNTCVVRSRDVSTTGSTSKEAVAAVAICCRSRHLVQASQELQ

human PCSK9 [2] = target: T1, human PCSK9; test: cell-based or functional assay; remark: listed apart in the source
human PCSK9 [3] = target: T2, human PCSK9 (human, UniProt Q8NBP7 31-692); test: SPR (Biacore), Fab captured by anti-Fab IgG, 1:1 fit
T2 construct: also called hPCSK9; proprotein convertase subtilisin-kexin type 9
Protocol: Biacore assay was developed. First, goat anti-Fab IgGs were immobilized onto CM5 chip by amine coupling as described above. The anti-Fab IgGs were diluted to 200 μg/ml in pH 5/10 mM Acetate solution, and injected onto the NHS/EDC activated surface to achieve an immobilization level of ˜10,000 RU, followed with surface inactivation by injection of Ethanolamine. Then Fab samples at concentration of 2 μg/ml in HBS-P running buffer were injected for 3 minutes at flow speed of 20 ul/min, followed with K-injection (3 minutes injection for association and 6 minutes for dissociation) of PCSK9 at concentration of 10 to 100 nM. The sensor chip surface was regenerated by 30 second injection of 100 mM phosphoric acid. The binding sensorgrams were fitted with 1:1 Langmuir binding model to determine the binding affinity.
T2 sequence (Q8NBP7 31-692 limits assumed): as the sequence (Q8NBP7 31-692 limits assumed) above

human PCSK9 [4] = target: T3, human PCSK9 (human, UniProt Q8NBP7 31-692); test: SPR (Biacore), IgG captured by anti-human IgG, PCSK9 injected at 3.75-60 nM
T3 construct: Secreted PCSK9 is autocleaved into prodomain and mature chain, and a His-tag is named for the HEK293 constructs; also called hPCSK9; proprotein convertase subtilisin-kexin type 9
Protocol: The affinities of those IgG molecules were also measured by Biacore assay. Briefly, anti-human IgG monoclonal antibody form Human Antibody Capture Kit provided by Biacore was immobilized on CM5 chips at level of 8000 to 10000 RU. The IgG samples at concentration of ˜0.4 μg/ml was injected onto a sensor chip for 2 minutes at a flow rate of 20 μl/min, then PCSK9 proteins at 5 concentrations (3.75 to 60 nM) were injected onto an IgG captured flow cell for binding kinetic analysis. After each round injection, the sensor chip surface was regenerated by 30 second injection of 3M Magnesium Chloride.
T3 sequence (Q8NBP7 31-692 limits assumed): as above

Chain of murine PCSK9 (Q80W65 35-694 limits assumed): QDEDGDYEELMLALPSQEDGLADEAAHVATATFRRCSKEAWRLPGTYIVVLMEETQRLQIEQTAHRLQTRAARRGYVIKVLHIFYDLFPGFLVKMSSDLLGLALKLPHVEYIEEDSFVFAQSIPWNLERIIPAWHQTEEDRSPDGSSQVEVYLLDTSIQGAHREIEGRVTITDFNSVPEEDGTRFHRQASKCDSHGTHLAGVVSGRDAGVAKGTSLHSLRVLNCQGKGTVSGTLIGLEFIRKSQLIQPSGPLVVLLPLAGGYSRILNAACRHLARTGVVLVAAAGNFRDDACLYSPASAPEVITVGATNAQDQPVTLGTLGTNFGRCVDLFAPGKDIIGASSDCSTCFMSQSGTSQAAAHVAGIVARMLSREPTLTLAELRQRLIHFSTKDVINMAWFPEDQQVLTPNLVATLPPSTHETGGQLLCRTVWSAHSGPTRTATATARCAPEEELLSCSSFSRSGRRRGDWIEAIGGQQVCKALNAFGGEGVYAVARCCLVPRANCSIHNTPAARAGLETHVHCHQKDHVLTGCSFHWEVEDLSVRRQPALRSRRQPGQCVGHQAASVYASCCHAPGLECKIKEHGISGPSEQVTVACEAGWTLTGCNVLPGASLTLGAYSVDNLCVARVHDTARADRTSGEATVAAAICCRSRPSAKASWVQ

B6: AX132 IgG2 (antibody)
heavy: EVQLLESGGGLVQPGGSLRLSCKASGYTFSSYGMYWVRQAPGKGLEWIGWIDPGSGGTKYNEKFKGKATISRDNSKNTLYLQMNSLRAEDTAVYYCARERYGYYFDYWGQGTLVTVSSASTKGPSVFPLAPCSRSTSESTAALGCLVKDYFPEPVTVSWNSGALTSGVHTFPAVLQSSGLYSLSSVVTVPSSNFGTQTYTCNVDHKPSNTKVDKTVERKCCVECPPCPAPPVAGPSVFLFPPKPKDTLMISRTPEVTCVVVDVSHEDPEVQFNWYVDGVEVHNAKTKPREEQFNSTFRVVSVLTVVHQDWLNGKEYKCKVSNKGLPAPIEKTISKTKGQPREPQVYTLPPSREEMTKNQVSLTCLVKGFYPSDIAVEWESNGQPENNYKTTPPMLDSDGSFFLYSKLTVDKSRWQQGNVFSCSVMHEALHNHYTQKSLSLSPGK
VL: EIVLTQSPATLSLSPGERATITCRASQYVGSYLNWYQQKPGQAPRLLIYDASNRATGIPARFSGSGSGTDFTLTISSLEPEDFAVYYCQVWDSSPPVVFGGGTKVEIK
IgG2 IC50 (nM), inhibition of PCSK9 (LDL uptake assay) (murine PCSK9): 9.4 nM
IgG2 IC50 (nM), inhibition of PCSK9 (LDL uptake assay) (human PCSK9 [1]): 8.9 nM
IgG2 IC50 (nM), inhibition of PCSK9 (LDL uptake assay) (rhesus PCSK9): 11.5 nM

B8: AX114 IgG2 (antibody, V domains shown)
VH: EVQLLESGGGLVQPGGSLRLSCKASGYTFSSYGMYWVRQAPGKGLEWIGWIDPGSGGTKYNEKFKGKATISRDNSKNTLYLQMNSLRAEDTAVYYCARERYGYYFDYWGQGTLVTVSS
VL: B6 VL with S31T, V98A
IgG2 IC50 (nM), inhibition of PCSK9 (LDL uptake assay) (murine PCSK9): 27.4 nM
IgG2 IC50 (nM), inhibition of PCSK9 (LDL uptake assay) (human PCSK9 [1]): 36.6 nM
IgG2 IC50 (nM), inhibition of PCSK9 (LDL uptake assay) (rhesus PCSK9): 14.4 nM

B9: AX139 Fab (Fab, V domains shown)
VH: B8 VH
VL: B6 VL with S52A
notes: Tested as purified Fab
Kd (human PCSK9 [3]): 13.2 nM
koff (human PCSK9 [3]): 0.00118 s⁻¹
kon (human PCSK9 [3]): 89700 M⁻¹ s⁻¹

B10: AX210 Fab (Fab, V domains shown)
VH: QVQLLESGGGLVQPGGSLRLSCKASGYTFSSYSIYWVRQAPGKGLEWIGWIDPGNGGTRYNQKFQSKATISRDNSKNTLYLQMNSLRAEDTAVYYCARARVGYSLDYWGQGTLVTVSS
VL: B6 VL
Fab IC50 (nM), inhibition of PCSK9 on LDL uptake (human PCSK9 [2]): 26.8 nM

B11: AX210 IgG (antibody, V domains shown)
VH: B10 VH
VL: B6 VL
notes: Purified IgG
Kd (human PCSK9 [4]): 2.64 nM
koff (human PCSK9 [4]): 0.000621 s⁻¹
kon (human PCSK9 [4]): 235000 M⁻¹ s⁻¹

B13: AX210 Fab (Fab, V domains shown)
VH: B10 VH
VL: B6 VL
notes: Tested as purified Fab
Kd (human PCSK9 [3]): 1.67 nM
koff (human PCSK9 [3]): 0.000287 s⁻¹
kon (human PCSK9 [3]): 172000 M⁻¹ s⁻¹

B14: AX114 IgG (antibody, V domains shown)
VH: B8 VH
VL: B6 VL with S31T, V98A
notes: Purified IgG; also called AX114-IgG2
Kd (human PCSK9 [4]): 24 nM
koff (human PCSK9 [4]): 0.00361 s⁻¹
kon (human PCSK9 [4]): 151000 M⁻¹ s⁻¹

B16: AX114 Fab (Fab, V domains shown)
VH: B8 VH
VL: B6 VL with S31T, V98A
notes: Tested as purified Fab from E. coli TG1
Kd (human PCSK9 [3]): 48.5 nM
koff (human PCSK9 [3]): 0.00348 s⁻¹
kon (human PCSK9 [3]): 71700 M⁻¹ s⁻¹

B17: AX137 Fab (Fab, V domains shown)
VH: B8 VH
VL: B6 VL with V29I, V90A
notes: Tested as purified Fab
Kd (human PCSK9 [3]): 19.5 nM
koff (human PCSK9 [3]): 0.00208 s⁻¹
kon (human PCSK9 [3]): 107000 M⁻¹ s⁻¹

B21: AX137 IgG (antibody, V domains shown)
VH: B8 VH
VL: B6 VL with V29I, V90A
notes: Purified IgG
Kd (human PCSK9 [4]): 9.98 nM
koff (human PCSK9 [4]): 0.00332 s⁻¹
kon (human PCSK9 [4]): 333000 M⁻¹ s⁻¹

Further lines, results first:

IgG2 IC50 (nM), inhibition of PCSK9 (LDL uptake assay) (murine PCSK9): 7 nM
IgG2 IC50 (nM), inhibition of PCSK9 (LDL uptake assay) (human PCSK9 [1]): 11.1 nM
IgG2 IC50 (nM), inhibition of PCSK9 (LDL uptake assay) (rhesus PCSK9): 10.2 nM
B1: AX213 IgG2 (antibody, V domains shown)
VH: B8 VH with S31R, M34I, Y35N, W50R, S55N, K59R, E99A, R100N, Y101D, Y104S
VL: EIVLTQSPATLSLSPGERATITCRASQYVGSYLNWYQQKPGQAPRLLIYDASNRATGIPARFSGSGSGTDFTLTISSLEPEDFAVYYCQVWDSSPPVVFGGGTKVEIKR

Fab IC50 (nM), inhibition of PCSK9 on LDL uptake (human PCSK9 [2]): 14.7 nM
B2: AX213 Fab (Fab, V domains shown)
VH: B10 VH with S31R, S33G, Y35N, W50R, Q62E, Q65K, S66G, R100N, V101D, L105F
VL: B1 VL

Kd (human PCSK9 [3]): 1.37 nM
koff (human PCSK9 [3]): 0.000329 s⁻¹
kon (human PCSK9 [3]): 243000 M⁻¹ s⁻¹
B3: AX213 Fab (Fab, V domains shown)
VH: B10 VH with S31R, S33G, Y35N, W50R, Q62E, Q65K, S66G, R100N, V101D, L105F
VL: B1 VL

Kd (human PCSK9 [4]): 2.07 nM
koff (human PCSK9 [4]): 0.00073 s⁻¹
kon (human PCSK9 [4]): 353000 M⁻¹ s⁻¹
B4: AX213 IgG (antibody, V domains shown)
VH: B8 VH with S31R, M34I, Y35N, W50R, S55N, K59R, E99A, R100N, Y101D, Y104S
VL: B1 VL

IgG2 IC50 (nM), inhibition of PCSK9 (LDL uptake assay) (murine PCSK9): 7.3 nM
IgG2 IC50 (nM), inhibition of PCSK9 (LDL uptake assay) (human PCSK9 [1]): 9.5 nM
IgG2 IC50 (nM), inhibition of PCSK9 (LDL uptake assay) (rhesus PCSK9): 4.7 nM
B5: AX212 IgG2 (antibody, V domains shown)
VH: B10 VH with I34F, Y35S, W50Y, N55S, R59K, S66G, A99Q
VL: B6 VL

Fab IC50 (nM), inhibition of PCSK9 on LDL uptake (human PCSK9 [2]): 13.8 nM
B7: AX212 Fab (Fab, V domains shown)
VH: B10 VH with I34F, Y35S, W50Y, N55S, R59K, S66G, A99Q
VL: B6 VL

Fab IC50 (nM), inhibition of PCSK9 on LDL uptake (human PCSK9 [2]): 12.6 nM
B12: AX211 Fab (Fab, V domains shown)
VH: B10 VH with S31R, Y32Q, S33G, I34F, Y35T, Q62E, Q65K, S66G, A99Y
VL: B6 VL

Kd (human PCSK9 [3]): 1.67 nM
koff (human PCSK9 [3]): 0.000329 s⁻¹
kon (human PCSK9 [3]): 197000 M⁻¹ s⁻¹
B15: AX211 Fab (Fab, V domains shown)
VH: B10 VH with S31R, Y32Q, S33G, I34F, Y35T, Q62E, Q65K, S66G, A99Y
VL: B6 VL
notes: Tested as purified Fab

Kd (human PCSK9 [3]): 1.47 nM
koff (human PCSK9 [3]): 0.000233 s⁻¹
kon (human PCSK9 [3]): 159000 M⁻¹ s⁻¹
B18: AX212 Fab (Fab, V domains shown)
VH: B10 VH with I34F, Y35S, W50Y, N55S, R59K, S66G, A99Q
VL: B6 VL
notes: Tested as purified Fab

Kd (human PCSK9 [4]): 1.63 nM
koff (human PCSK9 [4]): 0.000589 s⁻¹
kon (human PCSK9 [4]): 361000 M⁻¹ s⁻¹
B19: AX211 IgG (antibody, V domains shown)
VH: B10 VH with S31R, Y32Q, S33G, I34F, Y35T, Q62E, Q65K, S66G, A99Y
VL: B6 VL
notes: Purified IgG

Kd (human PCSK9 [4]): 2.12 nM
koff (human PCSK9 [4]): 0.000324 s⁻¹
kon (human PCSK9 [4]): 153000 M⁻¹ s⁻¹
B20: AX212 IgG (antibody, V domains shown)
VH: B10 VH with I34F, Y35S, W50Y, N55S, R59K, S66G, A99Q
VL: B6 VL
notes: Purified IgG
